Molecular target: T1, His×6-YY1(wt) (human, UniProt P25490 1-414)
T1 construct: Yin Yang 1 (YY1), wild type; also called Yin Yang 1; source: bacteria, recombinant, purified
Assay: SPR; Biacore T200; about 12,000 RU of His×6-YY1(wt) immobilised by amine coupling on a CM5 chip; analytes at 62.5, 125, 250, 500 and 1000 nM
Conditions: both partners purified

B1: His×6-YY1(260–414) (domain or fragment, human, UniProt P25490 260-414, looked up)
chain: LPPGGIPGIDLSDPKQLAEFARMKPRKIKEDDAPRTIACPHKGCTKMFRDNSAMRKHLHTHGPRVHVCAECGKAFVESSKLKRHQLVHTGEKPFQCTFEGCGKRFSLDFNLRTHVRIHTGDRPYVCPFDGCNKKFAQSTNLKSHILTHAKAKNNQ
notes: source: bacteria, recombinant, purified
binding result: binds
